# IntAct's records for PubMed 21169485
# B1: Lipopolysaccharide export system protein LptC (Escherichia coli (strain K12)), P0ADV9 (parent)
# chain: MSKARRWVIIVLSLAVLVMIGINMAEKDDTAQVVVNNNDPTYKSEHTDTLVYNPEGALSYRLIAQHVEYYSDQAVSWFTQPVLTTFDKDKIPTWSVKADKAKLTNDRMLYLYGHVEVNALVPDSQLRRITTDNAQINLVTQDVTSEDLVTLYGTTFNSSGLKMRGNLRSKNAELIEKVRTSYEIQNKQTQP
# partner: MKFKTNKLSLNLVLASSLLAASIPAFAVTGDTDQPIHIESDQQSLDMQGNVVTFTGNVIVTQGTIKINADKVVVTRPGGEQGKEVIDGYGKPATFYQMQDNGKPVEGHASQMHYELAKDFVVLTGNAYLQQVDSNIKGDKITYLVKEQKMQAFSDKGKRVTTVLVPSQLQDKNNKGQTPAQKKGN
# Variants of: B1
# Details: with lpta_ecoli lptA
row,Variant,effect of a mutation on the interaction
1,MSKARRWVIIVLSLAVLVMIGINMAEKDDTAQVVVNNNDPTYKSEHTDTLVYNPEGALSYRLIAQHVEYYSDQAVSWFTQPVLTTFDKDKIPTWSVKADKAKLTNDRMLYLYGHVEVNALVPDSQLRRITTDNAQINLVTQDVTSEDLVTLYRTTFNSSGLKMRGNLRSKNAELIEKVRTSYEIQNKQTQP [G153R],disrupting interaction
